What was measured:
[1] = molecular target: T1, soluble EGFR (sEGFR), amino acids 1-619 of mature human EGFR with (Gly)4Ser linker and (His)6 tag (human, UniProt P00533 25-643, biotinylated with Sulfo-NHS-LC-Biotin in the filter lift and the capture ELISA); experiment: capture filter lift and capture ELISA, biotinylated sEGFR
T1 construct: range 1-619; Expressed in CHO-K1 cells; also called biotinylated sEGFR; B-sEGFR
Experimental: Briefly, a filter is coated with a capture reagent (goat anti-human kappa chain antibody), then the coated filter is placed on a plate with phage plaques, from phage which are expressing Fabs. The filter is incubated with the plaques, then the filter is incubated with biotinylated sEGFR, and bound biotinylated sEGFR is detected by binding of Neutravidin-AP and incubation with the detectable alkaline phosphatase substrate.
The filter is submerged for 15 min. The filter is washed three times in PBS. The filter is blocked in 1% BSA in PBS for 1 hour. The filter is washed three times in PBS. The filter is air dried for 10 min. The filter is carefully laid onto phage plate and incubated overnight at 22° C. The filter is carefully lifted off and washed briefly in PBS. The filter is incubated with Biotinylated antigen at 1/1000 dilution into 3% dry milk, PBS, 0.05% Tween 20 for 1 hour at room temperature. The filter is vacuum washed with PBS, 0.05% Tween 20 three times. The filter is incubated with Neutravidin-AP 1/1000 in PBS, 0.05% Tween 20 for 30 min. at room temperature. The filter is vacuum washed with PBS, 0.05% Tween 20 three times. The filter is developed in 10 mls AP substrate (Nitro-blue tetrazolium, 5-Bromo-4-chloro-indolyl phosphate, Pierce, Rockford, Ill.). Plaques are selected based on blue color intensity.
Capture ELISA is used as an assay to detect Fabs which bind sEGFR as follows. […] The wells are washed 3 times with PBS-Tween 20 (0.05%). the wells are blocked with 50 μL/well 1% BSA in PBS-Tween for 1 hour at RT. The wells are washed 3 times with PBS-Tween. […] The plate is incubated at RT for 2 hours. The plate is wash 3 times with PBS-Tween. 50 μL/well biotinylated-sEGFR diluted 1/1000 in PBS-Tween are added and the plate is incubated at RT for 1 hour. The plate is washed 3 times with PBS-Tween.

[2] = molecular target: T1, soluble EGFR (sEGFR), amino acids 1-619 …; experiment: KinExA, calculated as Kd x kon
Experimental: (§1) Binding affinity measurements for full-length monoclonal antibodies of the invention are determined using a Sapidyne KINEXA assay. NHS-activated fast-flow sepharose beads (GE Healthcare) are pre-coated with antigen (50 μg anti-EGFR antibody per ml of beads) and blocked with 10 mg/ml BSA in 1 M Tris-HCl, pH 8.0. […] To determine the free antibody present at equilibrium, each sample is passed through the sEGFR-coated beads. The amount of bead-bound antibody is then quantified by passing a solution of fluorescent (Cy5) labeled goat anti-human Fc antibody (Jackson Immuno Research) diluted 1:4000 in running buffer over the beads. The measured fluorescence signal is proportional to the concentration of free antibody at equilibrium. Each concentration of sEGFR is measured in duplicate. The equilibrium dissociation constant (KD) is obtained from non-linear regression of the competition curves using a multiple-curve, one-site homogeneous binding model (KINEXA software).
(§2) The association rate constant (kₒₙ) for sEGFR binding is also determined using a Sapidyne KINEXA assay. Two pM antibody is mixed with 20 pM sEGFR using the same conditions as described above. At various times, samples are probed for free antibody using the conditions described above for equilibrium binding, and then the resulting time dependence is fit using the KINEXA software to determine the association rate (kₒₙ). The dissociation rate constant (koff) is calculated using the expression koff=Kd×kₒₙ.

[3] = molecular target: T1, soluble EGFR (sEGFR), amino acids 1-619 …; experiment: KinExA, full-length antibody with sEGFR in solution
Experimental: as §1, §2

[4] = molecular target: T1, soluble EGFR (sEGFR), amino acids 1-619 …; experiment: KinExA, equilibrium, full-length antibody with sEGFR in solution
Experimental: as §1

[5] = molecular target: T1, soluble EGFR (sEGFR), amino acids 1-619 …; experiment: capture ELISA: binder captured on goat anti-human kappa at varied concentration, biotinylated sEGFR (1/1000) detected with Neutravidin-AP, OD405
Experimental: Capture ELISA is used as an assay to detect Fabs which bind sEGFR as follows. […] The wells are washed 3 times with PBS-Tween 20 (0.05%). the wells are blocked with 50 μL/well 1% BSA in PBS-Tween for 1 hour at RT. The wells are washed 3 times with PBS-Tween. […] The plate is incubated at RT for 2 hours. The plate is wash 3 times with PBS-Tween. 50 μL/well biotinylated-sEGFR diluted 1/1000 in PBS-Tween are added and the plate is incubated at RT for 1 hour. The plate is washed 3 times with PBS-Tween. 50 μL/well Neutravidin-Alkaline Phosphatase (Neutravidin-AP; Pierce, Rockford, Ill.) diluted 1/1000 in PBS-Tween are added and incubated for 30 min. at RT. The plate is washed 3 times with PBS-Tween. 150 μL/well pNPP substrate (Sigma) is added and incubated at 37° C. until color develops.

Binder | binding result [1] | koff [2] | kon [3] | Kd [4] | EC50 (read off the curve) [5]
full-length monoclonal antibody VH4.15 (antibody, V domains shown, Full-length antibody with human Fc) VH: QVQLQESGPGLVKPSETLSLTCTVSGFSLTNYGVHWIRQPPGKGLEWIGNIWSGGNTDYNTPFTSRVTISVDTSKNQFSLKLSSVTAADTAVYYCARALDYYDYDYAYWGQGTMVTVSS VL: EIVLTQSPDFQSVTPKEKVTITCRASYSIGTNIHWYQQKPDQSPKLLIKYASESISGVPSRFSGSGSGTDFTLTINSLEAEDAATYYCQQNNEWPTSFGGGTKVEIK | – | 1.75e-07 s⁻¹ | 1.46e+07 M⁻¹ s⁻¹ | 0.012 pM | –
Fab 2.II.3 (Fab, V domains shown, Fab; also called 2.11.3) VH: QVTLKESGPVLVKPTETLTLTCTVSGFSLSNWDVHWIRQPPGKALEWLAVIWSGGNTDYNTPFTSRLTISKDTSKSQVVLTMTNMDPVDTATYYCARALDYYDYDFAYWGQGTMVTVSS VL: EIVLTQSPDFQSVTPKEKVTITCRASYSIGTNIHWYQQKPDQSPKLLIKYASESISGVPSRFSGSGSGTDFTLTINSLEAEDAATYYCQQNNDWPTTFGGGTKVEIK | binds | – | – | – | –
Fab 2.38 (Fab, V domains shown, Fab) VH: QVTLKESGPVLVKPTETLTLTCTVSGFSLSNWGVHWIRQPPGKALEWLAVIWSGGNTDYNTPFDSRLTISKDTSKSQVVLTMTNMDPVDTATYYCARALDYYDYDFAYWGQGTMVTVSS VL: EIVLTQSPDFQSVTPKEKVTITCRASYSIGTNIHWYQQKPDQSPKLLIKYASESISGVPSRFSGSGSGTDFTLTINSLEAEDAATYYCQQNNEWPTSFGGGTKVEIK | binds | – | – | – | –
full-length monoclonal antibody VH2.69 (antibody, V domains shown, Full-length antibody with human Fc) VH: QVTLKESGPVLVKPTETLTLTCTVSGFSLSNWDVHWIRQPPGKALEWLAVIWSGGNTDYNTPFASRLTISKDTSKSQVVLTMTNMDPVDTATYYCARALDYYDYNFAYWGQGTMVTVSS VL: EIVLTQSPDFQSVTPKEKVTITCRASYSIGTNIHWYQQKPDQSPKLLIKYASESISGVPSRFSGSGSGTDFTLTINSLEAEDAATYYCQQNNNWPTSFGGGTKVEIK | – | 6.51e-06 s⁻¹ | 9.64e+06 M⁻¹ s⁻¹ | 0.68 pM | –
full-length monoclonal antibody VH2.87 (antibody, V domains shown, Full-length antibody with human Fc) VH: QVTLKESGPVLVKPTETLTLTCTVSGFSLSNWDVHWIRQPPGKALEWLAVIWSGGATDYNTPFNSRLTISKDTSKSQVVLTMTNMDPVDTATYYCARALDYYDYNFAYWGQGTMVTVSS VL: EIVLTQSPDFQSVTPKEKVTITCRASYSIGTNIHWYQQKPDQSPKLLIKYASESISGVPSRFSGSGSGTDFTLTINSLEAEDAATYYCQQNNNWPTTFGGGTKVEIK | – | – | – | 0.215 pM | –

Continued, values first:

binding result [1] | koff [2] | kon [3] | Kd [4] | EC50 (read off the curve) [5] | Binder
binds | – | – | – | – | Fab 4.14 (Fab, V domains shown, Fab) VH: QVQLQESGPGLVKPSETLSLTCTVSGFSLTNWDVHWIRQPPGKGLEWIGNIWSGGNTDYNTPFTSRVTISVDTSKNQFSLKLSSVTAADTAVYYCARALDYYDYDYAYWGQGTMVTVSS VL: EIVLTQSPDFQSVTPKEKVTITCRASYSIGTNIHWYQQKPDQSPKLLIKYASESISGVPSRFSGSGSGTDFTLTINSLEAEDAATYYCQQNNDWPTTFGGGTKVEIK
– | – | – | – | ~0.02 µg/mL | Fab 4.21 (Fab, V domains shown, Fab) VH: QVQLQESGPGLVKPSETLSLTCTVSGFSLTNWDVHWIRQPPGKGLEWIGVIWSGGNTDYNTPFTSRVTISVDTSKNQFSLKLSSVTAADTAVYYCARALDYYDYDFAYWGQGTMVTVSS VL: EIVLTQSPDFQSVTPKEKVTITCRASYSIGTNIHWYQQKPDQSPKLLIKYASESISGVPSRFSGSGSGTDFTLTINSLEAEDAATYYCQQNNDWPTSFGGGTKVEIK
– | 2.02e-06 s⁻¹ | 1.07e+07 M⁻¹ s⁻¹ | 0.188 pM | – | full-length monoclonal antibody VH4.21 (antibody, V domains shown, Full-length antibody with human Fc) VH: QVQLQESGPGLVKPSETLSLTCTVSGFSLTNWDVHWIRQPPGKGLEWIGVIWSGGNTDYNTPFTSRVTISVDTSKNQFSLKLSSVTAADTAVYYCARALDYYDYDFAYWGQGTMVTVSS VL: EIVLTQSPDFQSVTPKEKVTITCRASYSIGTNIHWYQQKPDQSPKLLIKYASESISGVPSRFSGSGSGTDFTLTINSLEAEDAATYYCQQNNDWPTSFGGGTKVEIK

Source: patent US20080274114A1 (APPLIED MOLECULAR EVOLUTION, published 2008)
